Results reported in US20110046056A1, “APOA-1 PEPTIDE MIMETICS” (priority 2007, published 2011).
*1 amine or outer side, *2 acyl side, *3 side chain or, on linkers, in order; H or OH if unused. Bridges are numbered along the chain shown (N, C = ends). Where no end group is shown, it is not given here. [ ]: non-standard residue; d: D form. dStyrA = (R)-styryl-alanine, (D)-StyrA, O=C([C@@H](C/C=C/c1ccccc1)N[*:1])[*:2]; S6H = (2S)-2-aminooct-7-enoic acid, C=CCCCC[C@H](N[*:1])C(=O)[*:2]; S7H3 = (2S)-2-aminononanoic acid, CCCCCCC[C@H](N[*:1])C(=O)[*:2]; Leu(5,5,5,5',5',5'-F6) = N[C@@H](CC(C(F)(F)F)C(F)(F)F)C(=O)O; dNle(6-ylidene) = O=C([C@@H](CCCC=[*:3])N[*:1])[*:2]; Ala(E-styryl) = N[C@@H](C/C=C/c1ccccc1)C(=O)O; Gly(oct-7-en-1-yl) = C=CCCCCCC[C@H](N)C(=O)O; dGly(6-heptenyl) = C=CCCCCC[C@@H](N)C(=O)O; Ala(5-hexenyl) = C=CCCCCC[C@H](N)C(=O)O; Gla = N[C@@H](CC(C(=O)O)C(=O)O)C(=O)O; S8H3 = not defined here; R5H = not defined here; Aib = CC(C)(N)C(=O)O

B1: CONS[E^4, Q^11, S8H3^13,] (peptide)
peptide: Ac-PVLEEFREKLQE[S8H3]LEALKQKLK
modifications: not fully specified (C-terminus); printed as PVLEEFREKLQES8H3LEALKQKLK; reading uncertain; also: calls X13 alkenyl side chain-substituted amino acid

Biological target: ATP-binding cassette transporter A1 (ABCA1) (mouse, UniProt P41233 1-2261)
Assay: cell-based or functional assay

Chain of ATP-binding cassette transporter A1 (ABCA1) (P41233 whole entry): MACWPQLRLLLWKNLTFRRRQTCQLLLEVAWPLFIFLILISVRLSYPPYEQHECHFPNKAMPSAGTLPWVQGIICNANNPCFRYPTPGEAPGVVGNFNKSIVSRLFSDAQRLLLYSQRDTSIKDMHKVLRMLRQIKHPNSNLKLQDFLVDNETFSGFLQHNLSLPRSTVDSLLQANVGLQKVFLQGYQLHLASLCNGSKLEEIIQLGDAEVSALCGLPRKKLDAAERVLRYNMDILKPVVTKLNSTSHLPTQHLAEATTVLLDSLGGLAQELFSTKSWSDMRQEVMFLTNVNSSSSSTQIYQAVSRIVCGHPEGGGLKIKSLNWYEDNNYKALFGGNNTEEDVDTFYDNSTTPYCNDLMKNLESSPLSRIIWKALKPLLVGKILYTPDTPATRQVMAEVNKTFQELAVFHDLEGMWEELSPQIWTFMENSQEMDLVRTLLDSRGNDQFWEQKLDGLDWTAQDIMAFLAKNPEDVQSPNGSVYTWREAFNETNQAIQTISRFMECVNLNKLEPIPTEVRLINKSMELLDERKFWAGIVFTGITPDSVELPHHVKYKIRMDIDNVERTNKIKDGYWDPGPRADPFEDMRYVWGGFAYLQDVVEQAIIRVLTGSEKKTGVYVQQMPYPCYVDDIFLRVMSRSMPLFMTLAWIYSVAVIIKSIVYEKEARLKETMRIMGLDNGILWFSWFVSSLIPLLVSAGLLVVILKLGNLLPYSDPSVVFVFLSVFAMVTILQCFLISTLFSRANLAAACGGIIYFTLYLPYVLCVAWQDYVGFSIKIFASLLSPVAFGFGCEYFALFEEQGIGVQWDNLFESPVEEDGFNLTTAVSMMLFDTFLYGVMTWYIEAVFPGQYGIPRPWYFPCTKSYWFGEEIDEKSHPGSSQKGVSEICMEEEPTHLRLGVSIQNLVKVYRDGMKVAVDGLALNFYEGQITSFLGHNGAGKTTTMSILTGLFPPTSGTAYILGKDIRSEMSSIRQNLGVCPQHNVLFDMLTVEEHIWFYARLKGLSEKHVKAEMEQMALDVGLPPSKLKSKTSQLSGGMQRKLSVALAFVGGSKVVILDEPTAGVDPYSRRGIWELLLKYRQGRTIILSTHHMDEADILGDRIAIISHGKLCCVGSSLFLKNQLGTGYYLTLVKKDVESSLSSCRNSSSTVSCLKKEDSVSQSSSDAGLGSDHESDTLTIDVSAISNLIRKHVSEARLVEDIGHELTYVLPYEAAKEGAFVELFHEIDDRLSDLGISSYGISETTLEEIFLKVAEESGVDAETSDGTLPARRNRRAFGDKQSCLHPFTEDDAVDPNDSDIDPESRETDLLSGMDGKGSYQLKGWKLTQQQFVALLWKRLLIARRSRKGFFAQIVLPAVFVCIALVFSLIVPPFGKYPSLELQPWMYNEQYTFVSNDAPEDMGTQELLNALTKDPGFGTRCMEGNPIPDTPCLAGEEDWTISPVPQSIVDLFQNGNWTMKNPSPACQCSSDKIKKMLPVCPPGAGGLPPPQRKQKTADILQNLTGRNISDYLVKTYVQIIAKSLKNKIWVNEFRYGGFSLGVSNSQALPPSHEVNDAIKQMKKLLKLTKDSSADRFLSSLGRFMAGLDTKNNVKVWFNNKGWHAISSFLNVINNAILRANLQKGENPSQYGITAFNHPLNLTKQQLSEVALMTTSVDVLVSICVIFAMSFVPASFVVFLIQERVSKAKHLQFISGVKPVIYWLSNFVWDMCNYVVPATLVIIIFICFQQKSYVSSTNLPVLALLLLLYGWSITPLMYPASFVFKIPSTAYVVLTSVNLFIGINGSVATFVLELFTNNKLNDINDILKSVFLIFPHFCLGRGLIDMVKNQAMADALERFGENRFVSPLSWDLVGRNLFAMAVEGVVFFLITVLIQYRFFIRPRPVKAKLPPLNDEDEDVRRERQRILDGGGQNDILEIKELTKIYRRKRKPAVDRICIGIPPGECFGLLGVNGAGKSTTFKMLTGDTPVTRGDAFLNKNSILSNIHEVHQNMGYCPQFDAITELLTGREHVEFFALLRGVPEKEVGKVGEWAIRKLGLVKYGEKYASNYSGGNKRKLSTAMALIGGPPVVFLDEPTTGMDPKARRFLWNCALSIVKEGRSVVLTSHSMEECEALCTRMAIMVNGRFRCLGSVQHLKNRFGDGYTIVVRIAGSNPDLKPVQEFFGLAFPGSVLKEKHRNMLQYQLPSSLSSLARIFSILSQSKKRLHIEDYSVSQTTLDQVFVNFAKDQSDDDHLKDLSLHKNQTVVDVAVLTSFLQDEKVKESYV

ABCA1-dependent cholesterol efflux EC50 | ABCA1-dependent cholesterol efflux, % at 100 uM | ABCA1-dependent cholesterol efflux, % at 30 uM | Binder
1.3 µM | – | – | Ac-PVLDEFKEKLNE[Ala(5-hexenyl)]LEALKQKLK (not fully specified (C-terminus)) [CONS[K^7, S7H^13]]
22 µM | – | – | Ac-PVLDEFREKLNE[dStyrA]LEALKQKLK (not fully specified (C-terminus)) [CONS[(R)STYRA^13]]
0.6 µM | – | – | Ac-PVLDEFREKLNE[Ala(5-hexenyl)]LEALKQ[Ala(5-hexenyl)]LK [CONS[S7H^13,20]]
0.6 µM | – | – | Ac-PVLDEFREKLNE[S7H3]LEALKQKLK (not fully specified (C-terminus); printed as PVLDEFREKLNES7H3LEALKQKLK) [CONS[S7H3^13]]
44 µM | – | – | Ac-PVLDEFR[Gla]KLNE[Aib]LEALKQKLK (not fully specified (C-terminus)) [GLA8/AIB13]
0.5 µM | – | – | PVLDEXREKLNEXLXALKQXLK (not fully specified; N-terminal acetyl (Ac-Pro); S7H at 6, 13 and 20; Gla at 15) [CONS[GLA^15, S7H^6,13,20]]
142 µM | – | – | Ac-PVLDEFR[Gla]KLNEALEALKQKLK (not fully specified (C-terminus)) [GLA8/ALA13]
0.1 µM | – | – | Ac-P[Ala(5-hexenyl)]LDE[Ala(5-hexenyl)]REKLNE[Ala(5-hexenyl)]LEALKQKLK [CONS[S7H^2,6,13]]
– | 1.4% | – | Ac-PVLDEFREK[Ala(5-hexenyl)]NEELEALKQKLK [CONS[S7H^10]]
1.4 µM | – | – | Ac-PVLDEFREKLNE[S6H]LEALKQKLK (not fully specified (C-terminus)) [CONS[S6H^13]]
7.7 µM | – | – | PXLDEFREKLNEXLXALKQXLK (not fully specified; N-terminal acetyl (Ac-Pro); S7H at 2, 13 and 20; Gla at 15) [CONS[GLA^15, S7H^2,13,20]]
0.3 µM | – | – | Ac-PVLDEFREKLNE[S8H3]LEALKQKLK (reading uncertain) [CONS[S8H3^13]]
234 µM | – | – | Ac-PVLDEFREKLNEAL[Gla]ALKQKLK (not fully specified (C-terminus)) [GLA15/ALA13]
0.4 µM | – | – | Ac-PVLDE[Gly(oct-7-en-1-yl)]REKLNE[Gly(oct-7-en-1-yl)]LEALKQKLK [CONS[S8H^6,13]]
– | 1% | – | Ac-P[S6H]LDEFREKLNEELEALKQKLK (not fully specified (C-terminus)) [CONS[S6H^2]]
– | 6% | – | Ac-PVLDEFREKLNE[Aib]LEALKQKLK (not fully specified (C-terminus)) [AIB13]
0.6 µM | – | – | Ac-PVLDEFREKLNE[Gly(oct-7-en-1-yl)]LEALKQKLK [CONS[S8H^13]]
0.2 µM | – | – | Ac-P[Ala(5-hexenyl)]LDE[dGly(6-heptenyl)]REKLNE[Ala(5-hexenyl)]LEALKQKLK (not fully specified (C-terminus)) [CONS[R7H^6, S7H^2,13]]
– | 1.4% | – | Ac-PVLDEFRE[Ala(5-hexenyl)]LNEELEALKQKLK [CONS[S7H^9]]
– | 4% | – | Ac-PVLDE[Ala(5-hexenyl)]REKLNEELEALKQKLK [CONS[S7H^6]]
– | 6.3% | – | Ac-P[dGly(6-heptenyl)]LDEFREKLNEELEALKQKLK (not fully specified (C-terminus)) [CONS[R7H^2]]
41 µM | – | – | Ac-PVLDEFREKLNE[Aib]L[Gla]ALKQKLK (not fully specified (C-terminus)) [GLA15/AIB13]

ABCA1-dependent cholesterol efflux EC50 | ABCA1-dependent cholesterol efflux, % at 100 uM | ABCA1-dependent cholesterol efflux, % at 30 uM | Binder
0.2 µM | – | – | Ac-PVLDE[Ala(5-hexenyl)]REKLNE[Ala(5-hexenyl)]LEALKQ[Ala(5-hexenyl)]LK [CONS[S7H^6,13,20]]
0.1 µM | – | – | Ac-PVLDE[dGly(6-heptenyl)]REKLNE[Ala(5-hexenyl)]LEALKQ[Ala(5-hexenyl)]LK (not fully specified (C-terminus); printed as PVLDER7HREKLNES7HLEALKQS7HLK) [CONS[R7H^6, S7H^13,20]]
0.6 µM | – | – | Ac-PVLDE[S8H3]REKLNE[S8H3]LEALKQKLK (reading uncertain) [CONS[S8H3^6,13]]
0.3 µM | – | – | Ac-PVLDE[S7H3]REKLNE[S7H3]LEALKQKLK (not fully specified (C-terminus); printed as PVLDES7H3REKLNES7H3LEALKQKLK) [CONS[S7H3^6,13]]
0.3 µM | – | – | Ac-P[Ala(5-hexenyl)]LDEFREKLNE[Ala(5-hexenyl)]LEALKQKLK [CONS[S7H^2,13]]
0.7 µM | – | – | Ac-PVLEE[Ala(5-hexenyl)]REKLQE[Ala(5-hexenyl)]LEALKQKLK (not fully specified (C-terminus)) [CONS[E^4, S7H^6,13, Q^11]]
3.2 µM | – | – | Ac-P[Ala(5-hexenyl)]LDEFREKLNE[Ala(5-hexenyl)]LEALKQ[Ala(5-hexenyl)]LK [CONS[S7H^2,13,20]]
0.3 µM | – | – | Ac-PVLDE[Ala(5-hexenyl)]REKLNE[Ala(5-hexenyl)]LEALKQKLK [CONS[S7H^6,13]]
– | 1% | – | Ac-PVLDEFREKLNEELEA[Ala(5-hexenyl)]KQKLK [CONS[S7H^17]]
– | 6.2% | – | Ac-PVLDEFREKLNE[dNle(6-ylidene)]LEALKQKLK (not fully specified (C-terminus)) [CONS[R5H^13]]
7.2 µM | – | – | Ac-PVLDEFREKLNE[dGly(6-heptenyl)]LEALKQKLK (not fully specified (C-terminus)) [CONS[R7H^13]]
0.3 µM | – | – | Ac-PVLEEFREKLQE[Gly(oct-7-en-1-yl)]LEALKQKLK (not fully specified (C-terminus)) [CONS[E^4, Q^11, S8H^13]]
236 µM | – | – | Ac-PVLDEFREKLNEELEALKQ[S6H]LK (not fully specified (C-terminus); printed as PVLDEFREKLNEELEALKQS6HLK) [CONS[S6H^20]]
0.9 µM | – | – | Ac-PVLDEFR[Gla]KLNE[Ala(5-hexenyl)]LEALKQKLK (not fully specified (C-terminus)) [CONS[GLA^8, S7H^13]]
– | – | < 2% | Ac-PVLDEFREKLNE[R5H]LEA[R5H]KQKLK (staple 13-17; reading uncertain) [R5H [E13-L17]R5H CLOSED RING]
1.1 µM | – | – | Ac-PVLDEFREKLNE[Leu(5,5,5,5',5',5'-F6)]LEALKQKLK (not fully specified (C-terminus)) [CONS[HF-LEU^,13]]
10 µM | – | – | Ac-PVLDEFRE[R5H]LNE[R5H]LEALKQKLK (staple 9-13; reading uncertain) [R5H [K9-E13]R5H CLOSED RING]
– | 1.4% | – | Ac-PVLDEFREKLNEELEALKQ[dGly(6-heptenyl)]LK (not fully specified (C-terminus); printed as PVLDEFREKLNEELEALKQR7HLK) [CONS[R7H^20]]
0.2 µM | – | – | B1
0.2 µM | – | – | Ac-PVLDE[Ala(E-styryl)]REKLNE[Ala(5-hexenyl)]LEALKQKLK [CON[(S)STYRA^6, S7H^13]]
0.7 µM | – | – | Ac-PVLDEFREKLNE[Ala(5-hexenyl)]L[Gla]ALKQKLK [CONS[S7H^13, GLA^15]]
1 µM | – | – | Ac-PVLDEFREKLNE[Ala(E-styryl)]LEALKQKLK (not fully specified (C-terminus)) [CONS[(S)STYRA^13]]
